Results reported in patent publication US20250002576A1.

Tests used:
lysozyme = test: non-specific binding ELISA, lysozyme immobilized
[1] = molecular target: human Claudin 18.2 (human) (UniProt P56856); test: flow cytometry, antibody dilution series on hCLDN18.2-expressing MiaPaCa-2 cells

claudiximab (antibody)
normalized signal (fluorescence intensity normalized to trastuzumab) (lysozyme): 0.9 | EC50 [1]: 8.63 nM
